The results in this text go back to patent US20140017235A1.

This experiment has as its target human NGF (human) (UniProt P01138). In words: cell-based or functional assay.

human NGF (human), sequence (P01138 122-241 limits assumed): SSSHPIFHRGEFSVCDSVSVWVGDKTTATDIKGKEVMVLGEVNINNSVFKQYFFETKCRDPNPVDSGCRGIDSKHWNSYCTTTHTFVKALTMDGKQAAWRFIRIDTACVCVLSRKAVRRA

The substance mouse antibody 911 (Fab) had an antibody concentration that totally blocked NGF-elicited survival of trigeminal neurons of 20 nM.
